The target of this test is SARS-CoV-2 RBD (residues 328–528), deglycosylated, His tag removed (crystallography) (SARS-CoV-2, UniProt P0DTC2). As to the kind of experiment: crystal structure.

Substitutions are numbered along the chain they refer to.

B1: Fab 15033 (Fab, V domains shown)
VH: EVQLVESGGGLVQPGGSLRLSCAASGFDLGGYSMHWVRQAPGKGLEWVAGIYASGGATAYADSVKGRFTISADTSKNTAYLQMNSLRAEDTAVYYCARSYYYGGFGMDYWGQGTLVTVSS
VL: DIQMTQSPSSLSASVGDRVTITCRASQSVSSAVAWYQQKPGKAPKLLIYSASDLYSGVPSRFSGSRSGTDFTLTISSLQPEDFATYYCQQSYRYPITFGQGTKVEIK
For the molecule B1, the binding result is “binds”.

B2: Fab 15033-7 (Fab, V domains shown)
VH: B1 VH
VL: B1 VL with Y92H, R93T
Turning to B2, the binding result is on record as “binds”.

The values above are taken from PMC8316672 (Journal of Molecular Biology, 2021).
